In publication PMC8215210 one finds binding data, which are given here for 6 sequences.

In this data set the target is T1, His-OpaR (Vibrio parahaemolyticus RIMD2210633) (UniProt Q79YV4).
T1 sequence: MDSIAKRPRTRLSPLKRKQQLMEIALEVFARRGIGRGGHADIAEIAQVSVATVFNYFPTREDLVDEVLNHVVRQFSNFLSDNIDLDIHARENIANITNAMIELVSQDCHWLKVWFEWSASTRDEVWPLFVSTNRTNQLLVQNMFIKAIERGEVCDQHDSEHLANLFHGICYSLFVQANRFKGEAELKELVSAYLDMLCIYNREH
The data set can be described thus: DNase I footprinting. The settings on record: Buffer, salt, pH and temperature not given (as in Zhang et al., 2012, 2017); EMSA on 6% polyacrylamide gel; footprinting with 0, 6, 9, 12 pmol His-OpaR.

“GCCATATTCCAAACTCGTTGTGCCTGCCTTTTCAAGAACTGCTGGATAACGGTTACATCAAACCGAACTCAGAATTGAAACAAGCATTTAGCGAACTGTCGCTATATAATGACAATTCAATCATTTTCAGCTGTGGCTCAGGTGTGACTGCCTGTATTTTATTGTTGGCAGCTCATCAACTTGGCTTACGCA (double strand) [VPA1176 footprint probe]”: the binding result is given as “binds”.

As for “CCATTAAGTGACTTTAGTTCCACTTTTTTAGCTTATTTGATGACATAAGCAACAGTTTCGCCTCCAACCAATAAACAACTGAATACATATTAAAATATTCATTAAATTGACTATTTTTATGATAAACGCTTAATAATAGTTTTATCTATAAACAAACAGTGAGCTTTGTTATAAATTCATTAAAAATTTAACTTTGTATTAATTAGAAAATTCAGCGTCATATTTGTTCAACTGCGA (double strand) [scrA footprint probe]”, the binding entry is “binds”.

With “CCACTCCTCTTACAAGAATGAGGACGACATCAAGAAAATATTAAAAAATGGATAATTAACCATCGGTTAAGCGTAATAACTAATGACGCTATAAAGTTTTTTGTTATTATCAGTTAATTGTCAGTAGTACATGGACTTAACCGTAGTCGTTTCATGGGAATCTTGGAATCCGATATT (double strand) [VP0699 footprint probe]”, the binding result was “binds”.

As for “GCTTTTCTAGGCACAAAATGACTTTAGAATGGATTAATGCGAAAGCAATTAAAAAAGTGTGAGTAACGGCTGCAAACTATTGATTTCAATGTCAGGTAACGTACGTGTTCTTGAATGATTAATGACATTTTTATTCATATCATTAAACCAACATGCGGCAAAACCCGCTAACTTTGCACCATATACATCCGTCGTGAGGTGGTCACCAACATGCAAAATGTTTTCGGCAGGTAAATCGAGGAACTGCT (double strand) [VP2979 footprint probe]”, the binding result is given as “binds”.

For “AGACAATCACACCGATAGCCAGTAAGAAAATCATCACAAAAGGGATGAGTACAGCAGTACGTAGTGTAATTTGAGTCTTTGCAGTAGACATTGCCTAGTCACATTAGGGATGGTTCACCTTAATTGTACTGACATTTCTGTTAATATCGAGCGCTAAGCACTCTCATTGTTAACTCACTGCTTAAGTGACGGTCAGTACAACTCTTTTAACTTTCTGGTTAGCGTATTGCGTCCCCAGCCTAATACTTTAGCGGCATCTTGCTTGTGACCTTTAGTGTG (double strand) [VP0117 footprint probe]”, the binding result is given as “binds”.

On to “CTTACCTTGGCGTACCTCTTGCCAATCCGTACTTTCAAATAAATCGCCTTGTCCTTGCATCCCGTTGCCTATTTAAACCATAAAAATTTCAGATAATTATTACCTTTGCAAAGGCTATTGGTTATTCTTGTAGATAATAAGAATTTTAACAATAAAAGAATAATTCTCGTAGTAACGGACGAGCTAGTGGGGAGCTAATGCGTTATTCACCCAGAAAGCAGT (double strand) [VPA0198 footprint probe]”, for which the binding result is “binds”.
